Reference: patent publication US20250369024A1, “Acyloin Condensation Reactions, Enzymes, and Products Thereof” (Mojia Biotech Pte. Ltd., priority 2023, published 2025)

Key:
Assay type in all cases: cell-based, E. coli
[1] = test system: Acetaldehyde; assay: HACS screening, acetaldehyde-C1 condensation (resting cells), lactic acid; settings: 20 mM acetaldehyde and 20 mM formate, 3 hours
Description: (§1) To implement the C1 elongation pathway for lactic acid production in vivo, we engineered vectors to independently control expression of various HACS candidates and the acyl-CoA transferase from Clostridium aminobutyricum (CaAbfT), with HACS under control of the IPTG-inducible T7 promoter in pCDFDuet-1 and CaAbfT under control of a cumate-inducible T5 promoter in pETDuet-1. As a host for these vectors, we used an engineered strain of E. coli based on MG1655(DE3) with knockouts for formaldehyde (ΔfrmA) and formate (ΔfdhF ΔfdnG ΔfdoG) oxidation as well as for glycolate utilization (ΔglcD).
(§2) In vivo product synthesis was conducted using M9 minimal media (6.78 g/L Na2HPO4, 3 g/L KH2PO4, 1 g/L NH4Cl, 0.5 g/L NaCl, 2 mM MgSO4, 100 μM CaCl2), and 15 μM thiamine-HCl) unless otherwise stated. Cells were initially grown in 96-deep well plates (USA Scientific, Ocala, FL) containing 0.5 mL of the above media further supplemented with 20 g/L glycerol, 10 g/L tryptone, and 5 g/L yeast extract. […]
(§3) Cells from the above pre-cultures were then centrifuged (4000 rpm, 22° C.), washed with the above minimal media without any carbon source, and resuspended with 1 mL of above minimal media containing indicated amounts of carbon source. […] After incubation at 30° C. for 3 hours, the cells were pelleted by centrifugation and the media was analyzed using HPLC.

[2] = test system: Glycolaldehyde; assay: HACS screening, glycolaldehyde-C1 condensation (resting cells), glyceric acid; settings: 20 mM glycolaldehyde and 20 mM formate, 3 hour
Description: as §1, with “glyceric” for “lactic”
as §2
as §3, with “hour,” for “hours,”

[3] = test system: Methional; assay: HACS screening, methional-C1 condensation (resting cells), desmeninol; settings: 20 mM methional and 20 mM formate, 3 hours
Description: as §1, with “leucic” for “lactic”
as §2, §3

[4] = test system: glyoxylic acid; assay: HACS screening, glyoxylic acid-C1 condensation (resting cells), tartronic acid; settings: 5 mM glyoxylic acid and 20 mM formate; 1 hour
Description: as §1, with “tartronic” for “lactic”
as §2, with “containing 0.2” for “containing 0.5”
as §3, with “1 hour,” for “3 hours,”

B1: RuHACL: Engineered 2-hydroxyphytanoyl-CoA lyase [Rhodospirillales bacterium URHD0017], SEQ ID NO: 1 (protein)
chain: MSEVDGATLIARSLKQQGIDHLFGVVGFPITAIAAAAQKEGVAYLGMRNEQSAAYAAAAYGYLTGRPGAAVVVTGPGVVHGLSGLANAQQNCWPMILIGGASETYRGGMGAFQEERQVLIASPFCKFAHGIESVARIPFYVEMATRNAIYGRPGATYLDMPDDIIRGTCETDKIAQAERVPEAPRSVAPAENVEAALDLLEKAQRPLVLLGKGMAWSRGEDEVRAFIERTQVPFVRSPMGKGVMPDDHPLSASAARTLALQQADVIFLMGARLNWIFHFGLPPRYAKDVKVIQLDIAPEEIGHNKPTEVALVGDGKAIMAQLNKALVNRQWFHPKDTPWRQALTKKAAENVATIKPQVDDDQGPAGYYRALRDVAAWMPKNAILSAEGANTMDIGLTQLASSNARSVLNAGTYGTMGVGLGQAIAAAVSDPSRPVIHLSGDSAIGFSGMEMETLVRYNLPVKIVVLNNGGIGPGMPEIPENPMFNLKPNALIYGARYDKVMEAFGGKGIFVKEPKDIRKALDEAMAFKGPALVNVVLSQGSTRKAQQFAWHS
modifications: Rhodospirillales bacterium URHD0017 engineered 2-hydroxyphytanoyl-CoA lyase
- Product flux, substrate Acetaldehyde, product Lactate [1]: 78.1 μM/OD/h
- Product flux, substrate Glycolaldehyde, product Glycerate [2]: 7.2 μM/OD/h
- Product flux, substrate Methional, product Desmeninol [3]: 20.0 μM/OD/h
- tartronic acid productivity of best candidate [4]: up to 13 μM/hr per OD600
